Measurements reported in US20180155451A1 (published 2018).

T1: FcγRIIb extracellular domain with C-terminal His tag (human, UniProt P31994 43-217)
T1 construct: extracellular domain; also called FcgRIIb; 2b; not shown: His tag at the C terminus
T1 sequence (looked up): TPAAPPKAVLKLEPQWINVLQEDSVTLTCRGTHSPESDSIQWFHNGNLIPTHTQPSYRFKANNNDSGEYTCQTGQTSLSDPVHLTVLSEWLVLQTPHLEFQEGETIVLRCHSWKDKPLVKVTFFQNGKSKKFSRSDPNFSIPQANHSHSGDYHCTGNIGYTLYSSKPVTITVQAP

B1: GpH7-A5/GpH7-B3 variant S298_02A/GpL16-k0 (antibody, human IgG1, kappa)
heavy 1: not shown
heavy 2: not shown
light: DIVMTQSPLSLPVTPGEPASISCQASESLVHSNRNTYLHWYLQKPGQSPQLLIYKVSNRFSGVPDRFSGSGSGTDFTLKISRVEAEDVGVYYCSQNTHVPPTFGQGTKVEIERTVAAPSVFIFPPSDEQLKSGTASVVCLLNNFYPREAKVQWKVDNALQSGNSQESVTEQDSKDSTYSLSSTLTLSKADYEKHKVYACEVTHQGLSSPVTKSFNRGEC
notes: position is EU numbering; also called He Ab
B2: GpH7-A5/GpH7-B3 variant I332_10E/GpL16-k0 (antibody, human IgG1, kappa)
heavy 1: not shown
heavy 2: not shown
light: B1 light
notes: as for B1
B3: GpH7-A5/GpH7-B3 variant E333_02A/GpL16-k0 (antibody, human IgG1, kappa)
heavy 1: not shown
heavy 2: not shown
light: B1 light
notes: as for B1
B4: GpH7-A5/GpH7-B3 variant K334_01G/GpL16-k0 (antibody, human IgG1, kappa)
heavy 1: not shown
heavy 2: not shown
light: B1 light
notes: as for B1
B5: GpH7-A5/GpH7-B3 variant K334_02A/GpL16-k0 (antibody, human IgG1, kappa)
heavy 1: not shown
heavy 2: not shown
light: B1 light
notes: as for B1
B6: GpH7-A5/GpH7-B3 variant A330_03V/GpL16-k0 (antibody, human IgG1, kappa)
heavy 1: not shown
heavy 2: not shown
light: B1 light
notes: as for B1
B7: GpH7-A5/GpH7-B3 variant K334_06M/GpL16-k0 (antibody, human IgG1, kappa)
heavy 1: not shown
heavy 2: not shown
light: B1 light
notes: as for B1
B8: GpH7-A5/GpH7-B3 variant E333_16H/GpL16-k0 (antibody, human IgG1, kappa)
heavy 1: not shown
heavy 2: not shown
light: B1 light
notes: as for B1
B9: GpH7-A5/GpH7-B3 variant A330_20W/GpL16-k0 (antibody, human IgG1, kappa)
heavy 1: not shown
heavy 2: not shown
light: B1 light
notes: as for B1
B10: GpH7-A5/GpH7-B3 variant A330_10E/GpL16-k0 (antibody, human IgG1, kappa)
heavy 1: not shown
heavy 2: not shown
light: B1 light
notes: as for B1
B11: GpH7-A5/GpH7-B3 variant I332_01G/GpL16-k0 (antibody, human IgG1, kappa)
heavy 1: not shown
heavy 2: not shown
light: B1 light
notes: as for B1
B12: GpH7-A5/GpH7-B3 variant P329_02A/GpL16-k0 (antibody, human IgG1, kappa)
heavy 1: not shown
heavy 2: not shown
light: B1 light
notes: as for B1
B13: GpH7-A5/GpH7-B3 variant E333_13S/GpL16-k0 (antibody, human IgG1, kappa)
heavy 1: not shown
heavy 2: not shown
light: B1 light
notes: as for B1
B14: GpH7-A5/GpH7-B3 variant A330_08L/GpL16-k0 (antibody, human IgG1, kappa)
heavy 1: not shown
heavy 2: not shown
light: B1 light
notes: as for B1
B15: GpH7-A5/GpH7-B3 variant I332_12R/GpL16-k0 (antibody, human IgG1, kappa)
heavy 1: not shown
heavy 2: not shown
light: B1 light
notes: as for B1
B16: GpH7-A5/GpH7-B3 variant A330_06M/GpL16-k0 (antibody, human IgG1, kappa)
heavy 1: not shown
heavy 2: not shown
light: B1 light
notes: as for B1
B17: GpH7-A5/GpH7-B3 variant E333_01G/GpL16-k0 (antibody, human IgG1, kappa)
heavy 1: not shown
heavy 2: not shown
light: B1 light
notes: as for B1
B18: GpH7-A5/GpH7-B3 variant K334_09D/GpL16-k0 (antibody, human IgG1, kappa)
heavy 1: not shown
heavy 2: not shown
light: B1 light
notes: as for B1
B19: GpH7-A5/GpH7-B3 variant K334_07I/GpL16-k0 (antibody, human IgG1, kappa)
heavy 1: not shown
heavy 2: not shown
light: B1 light
notes: as for B1
B20: GpH7-A5/GpH7-B3 variant I332_09D/GpL16-k0 (antibody, human IgG1, kappa)
heavy 1: not shown
heavy 2: not shown
light: B1 light
notes: as for B1
B21: GpH7-A5/GpH7-B3 variant K334_08L/GpL16-k0 (antibody, human IgG1, kappa)
heavy 1: not shown
heavy 2: not shown
light: B1 light
notes: as for B1
B22: GpH7-A5/GpH7-B3 variant A327_11K/GpL16-k0 (antibody, human IgG1, kappa)
heavy 1: not shown
heavy 2: not shown
light: B1 light
notes: as for B1
B23: GpH7-A5/GpH7-B3 variant A330_15Y/GpL16-k0 (antibody, human IgG1, kappa)
heavy 1: not shown
heavy 2: not shown
light: B1 light
notes: as for B1
B24: GpH7-A5/GpH7-B3 variant A330_07I/GpL16-k0 (antibody, human IgG1, kappa)
heavy 1: not shown
heavy 2: not shown
light: B1 light
notes: as for B1
B25: GpH7-A5/GpH7-B3 variant A330_04F/GpL16-k0 (antibody, human IgG1, kappa)
heavy 1: not shown
heavy 2: not shown
light: B1 light
notes: as for B1
B26: GpH7-A5/GpH7-B3 variant K334_04F/GpL16-k0 (antibody, human IgG1, kappa)
heavy 1: not shown
heavy 2: not shown
light: B1 light
notes: as for B1
B27: GpH7-A5/GpH7-B3 variant K334_05P/GpL16-k0 (antibody, human IgG1, kappa)
heavy 1: not shown
heavy 2: not shown
light: B1 light
notes: as for B1
B28: GpH7-A5/GpH7-B3 variant (Y300_11K)/GpL16-k0 (antibody, human IgG1, kappa)
heavy 1: not shown
heavy 2: not shown
light: B1 light
notes: Heterodimerized; only the B3 chain altered; also called He Ab Y300_11K
B29: GpH7-A5/GpH7-B3 variant (Y300_06M)/GpL16-k0 (antibody, human IgG1, kappa)
heavy 1: not shown
heavy 2: not shown
light: B1 light
notes: Heterodimerized; only the B3 chain altered; also called He Ab Y300_06M
B30: GpH7-A5/GpH7-B3 variant (Y300_19Q)/GpL16-k0 (antibody, human IgG1, kappa)
heavy 1: not shown
heavy 2: not shown
light: B1 light
notes: Heterodimerized; only the B3 chain altered; also called He Ab Y300_19Q
B31: GpH7-A5/GpH7-B3 variant (Y300_02A)/GpL16-k0 (antibody, human IgG1, kappa)
heavy 1: not shown
heavy 2: not shown
light: B1 light
notes: Heterodimerized; only the B3 chain altered; also called He Ab Y300_02A
B32: GpH7-A5/GpH7-B3 variant (Y300_03V)/GpL16-k0 (antibody, human IgG1, kappa)
heavy 1: not shown
heavy 2: not shown
light: B1 light
notes: Heterodimerized; only the B3 chain altered; also called He Ab Y300_03V
B33: GpH7-A5/GpH7-B3 variant (Y300_20W)/GpL16-k0 (antibody, human IgG1, kappa)
heavy 1: not shown
heavy 2: not shown
light: B1 light
notes: Heterodimerized; only the B3 chain altered; also called He Ab Y300_20W
B34: GpH7-A5/GpH7-B3 variant (Y296_20W)/GpL16-k0 (antibody, human IgG1, kappa)
heavy 1: not shown
heavy 2: not shown
light: B1 light
notes: Heterodimerized; only the B3 chain altered; also called He Ab Y296_20W
B35: GpH7-A5/GpH7-B3 variant (Y300_13S)/GpL16-k0 (antibody, human IgG1, kappa)
heavy 1: not shown
heavy 2: not shown
light: B1 light
notes: Heterodimerized; only the B3 chain altered; also called He Ab Y300_13S
B36: GpH7-A5/GpH7-B3 variant (Y300_14T)/GpL16-k0 (antibody, human IgG1, kappa)
heavy 1: not shown
heavy 2: not shown
light: B1 light
notes: Heterodimerized; only the B3 chain altered; also called He Ab Y300_14T
B37: GpH7-A5/GpH7-B3 variant (Y300_08L)/GpL16-k0 (antibody, human IgG1, kappa)
heavy 1: not shown
heavy 2: not shown
light: B1 light
notes: Heterodimerized; only the B3 chain altered; also called He Ab Y300_08L

Target: T2, FcγRIIIa extracellular domain with C-terminal His tag (human, UniProt P08637 17-208)
T2 construct: extracellular domain; also called FcgRIIIa; 3a; not shown: His tag at the C terminus
T2 sequence (P08637 17-208): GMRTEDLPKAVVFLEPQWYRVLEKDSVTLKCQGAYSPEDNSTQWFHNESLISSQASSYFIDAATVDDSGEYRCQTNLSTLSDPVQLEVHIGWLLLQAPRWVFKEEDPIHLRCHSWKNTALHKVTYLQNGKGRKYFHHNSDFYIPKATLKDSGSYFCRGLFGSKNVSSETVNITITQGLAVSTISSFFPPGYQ
Assay: SPR (Biacore); ratio of He/Con_3a (FcγRIIIa) to He/Con_2b (FcγRIIb)
Procedure: (§1) The heterodimerized antibodies He Abs in which one of the H chains was introduced with an alteration were assayed for their binding activities to each activating FcγR and inhibitory FcγR according to the method described in Example 4. […] The activating FcγRs in FIGS. 26, 27, 28, and 29 are FcγRIa, FcγRIIa (R), FcγRIIa (H), and FcγRIIIa, respectively.
(§2) Analysis of interaction between objective antibody and the FcγR was carried out using Biacore T100 (GE Healthcare). HBS-EP+ (GE Healthcare) was used as the running buffer, and the measurement temperature was set to 25° C. Chips produced by immobilizing the antigen peptide by the amine coupling method to a Series S Sencor Chip CM5 (GE Healthcare), or alternatively, chips produced by allowing preliminarily biotinylated antigen peptides to interact with and immobilize onto a Series S Sensor Chip SA (certified) (GE Healthcare) were used. Antibodies of interest were captured onto an antigen peptide-immobilized chip, and allowed to interact to each FcγR diluted with running buffer. To regenerate and repeatedly use the chip, the antibodies captured on the chip were washed off by reacting 10 mM glycine-HCl, pH 1.5.

He_3a/2b (IIIa/IIb) [ratio] | Binder
2.18 | B1
1.63 | B2
1.26 | B3
1.31 | B4
1.37 | B5
1.93 | B6
1.33 | B7
1.24 | B8
1.37 | B9
1.21 | B10
1.27 | B11
1.39 | B12
1.26 | B13
1.77 | B14
1.55 | B15
1.76 | B16
1.21 | B17
1.69 | B18
1.27 | B19
1.41 | B20
1.35 | B21
2.53 | B22
1.32 | B23
1.53 | B24
1.59 | B25
1.33 | B26
1.27 | B27

Target: T2, FcγRIIIa extracellular domain with …
Assay: SPR (Biacore), antibody captured, FcγR as analyte; He Ab binding / GpH7-A5/GpH7-B3/GpL16-k0 binding x 100
Procedure: as §1, §2

He/Con_3a (IIIa binding) | Binder
160 relative, control = 100 | B1
233 relative, control = 100 | B2
105 relative, control = 100 | B3
121 relative, control = 100 | B4
147 relative, control = 100 | B5
101 relative, control = 100 | B6
144 relative, control = 100 | B7
103 relative, control = 100 | B8
104 relative, control = 100 | B9
84.6 relative, control = 100 | B10
111 relative, control = 100 | B11
56.4 relative, control = 100 | B12
103 relative, control = 100 | B13
124 relative, control = 100 | B14
75.9 relative, control = 100 | B15
142 relative, control = 100 | B16
98.2 relative, control = 100 | B17
160 relative, control = 100 | B18
151 relative, control = 100 | B19
207 relative, control = 100 | B20
143 relative, control = 100 | B21
31.7 relative, control = 100 | B22
125 relative, control = 100 | B23
103 relative, control = 100 | B24
147 relative, control = 100 | B25
148 relative, control = 100 | B26
134 relative, control = 100 | B27

Target: T1, FcγRIIb extracellular domain with …
Assay: as above
Procedure: as §1, §2

He/Con_2b (IIb binding) | Binder
73.4 relative, control = 100 | B1
142 relative, control = 100 | B2
83.8 relative, control = 100 | B3
92.5 relative, control = 100 | B4
108 relative, control = 100 | B5
52.4 relative, control = 100 | B6
109 relative, control = 100 | B7
83.3 relative, control = 100 | B8
76.1 relative, control = 100 | B9
70.1 relative, control = 100 | B10
87.1 relative, control = 100 | B11
40.5 relative, control = 100 | B12
81.8 relative, control = 100 | B13
70.5 relative, control = 100 | B14
48.9 relative, control = 100 | B15
80.5 relative, control = 100 | B16
81.4 relative, control = 100 | B17
94.8 relative, control = 100 | B18
119 relative, control = 100 | B19
147 relative, control = 100 | B20
106 relative, control = 100 | B21
12.5 relative, control = 100 | B22
95 relative, control = 100 | B23
67.1 relative, control = 100 | B24
92.8 relative, control = 100 | B25
111 relative, control = 100 | B26
105 relative, control = 100 | B27

Target: T3, FcγRIa extracellular domain with C-terminal His tag (human, UniProt P12314 16-292)
T3 construct: extracellular domain; Expressed in FreeStyle293 cells; used as analyte in Biacore; also called FcgRI; 1a; not shown: His tag at the C terminus
T3 sequence (P12314 16-292): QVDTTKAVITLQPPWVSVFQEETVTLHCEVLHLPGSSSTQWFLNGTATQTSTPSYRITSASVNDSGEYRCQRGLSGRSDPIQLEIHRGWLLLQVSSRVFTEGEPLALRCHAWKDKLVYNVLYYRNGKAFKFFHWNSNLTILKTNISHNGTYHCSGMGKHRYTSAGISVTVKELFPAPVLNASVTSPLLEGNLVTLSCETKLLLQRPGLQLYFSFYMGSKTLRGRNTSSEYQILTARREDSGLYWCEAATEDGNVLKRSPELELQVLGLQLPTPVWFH
Assay: SPR (Biacore), captured antibody, FcγRIa analyte; relative to GpH7-A5/GpH7-B3/GpL16-k0 = 100

He/Con_1a | Binder
107 % of control | B28
112 % of control | B29
112 % of control | B30
112 % of control | B31
117 % of control | B32
112 % of control | B33
111 % of control | B34
111 % of control | B35
112 % of control | B36
113 % of control | B37
